T1: human TREM2 (human) (UniProt Q9NZC2)
T1 sequence (looked up): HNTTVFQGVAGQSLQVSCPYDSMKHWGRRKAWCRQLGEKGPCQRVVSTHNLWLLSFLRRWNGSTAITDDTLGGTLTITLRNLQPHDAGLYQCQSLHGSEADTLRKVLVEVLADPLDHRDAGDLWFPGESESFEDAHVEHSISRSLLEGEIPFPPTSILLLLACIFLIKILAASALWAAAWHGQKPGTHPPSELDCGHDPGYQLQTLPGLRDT


How the values were obtained:
human TREM2 (human) [1] = target: T1, human TREM2 (human); test: 2nd screen, 2 nM Ab
human TREM2 (human) [2] = target: T1, human TREM2 (human); test: 1st screen, 10 nM Ab
human TREM2 (human) [3] = target: T1, human TREM2 (human); test: 2nd screen, 10 nM Ab
human TREM2 (human) [4] = target: T1, human TREM2 (human); test: 1st screen, 110 nM Ab
human TREM2 (human) [5] = target: T1, human TREM2 (human); test: 2nd screen, 100 nM Ab

| Binder | Binding Signal (fold over 6E7 parental antibody) (human TREM2 (human) [1]) [fold] | Binding Signal (fold over 6E7 parental antibody) (human TREM2 (human) [2]) [fold] | Binding Signal (fold over 6E7 parental antibody) (human TREM2 (human) [3]) [fold] | Binding Signal (fold over 6E7 parental antibody) (human TREM2 (human) [4]) [fold] | Binding Signal (fold over 6E7 parental antibody) (human TREM2 (human) [5]) [fold] |
| --- | --- | --- | --- | --- | --- |
| 6E7 variant V36 (antibody, V domains shown) VH: EVQLVQSGAEVKKPGESLKISCKGSGYSFTSYWLAWVRQMPGKGLEWMGIIYPGDSDTRYSPSFQGQVTISADKSISTAYLQWSSLKASDTAMYFCARSRTFYYDSSDYFDYWGQGTLVTVSS VL: DIQMTQSPSSVSASVGDRVTITCRASQGISSWLAWYQQKPGKAPKLLIYAASSRQNGVPSRFSGSGSGTDFTLTISSLQPEDFATYFCQQADSYPRTFGQGTKLEIK | 4 | 3.38 | 3.44 | – | – |
| 6E7 variant V32 (antibody, V domains shown) VH: EVQLVQSGAEVKKPGESLKISCKGSGYSFTSYWIAWVRQMPGKGLEWMGIIYPGDSDTRYSNSFQGQVTISADKSISTAYLQWSSLKASDTAMYFCARQRTFYYDSSDYFDYWGQGTLVTVSS VL: DIQMTQSPSSVSASVGDRVTITCRASQGISSWLAWYQQKPGKAPKLLIYAASSLQNGVPSRFSGSGSGTDFTLTISSLQPEDFATYFCQQADSFPRTFGQGTKLEIK | – | – | – | 0.82 | 0.89 |
| 6E7 variant V39 (antibody, V domains shown) VH: EVQLVQSGAEVKKPGESLKISCKGSGYSFGSYWIAWVRQMPGKGLEWMGIIYPGDSDTRYNPSFQGQVTISADKSISTAYLQWSSLKASDTAMYFCARGRTFYYDSSDYFDYWGQGTLVTVSS VL: DIQMTQSPSSVSASVGDRVTITCRASQGISSWLAWYQQKPGKAPKLLIYAASSLVNGVPSRFSGSGSGTDFTLTISSLQPEDFATYFCQQADSSPRTFGQGTKLEIK | 5.11 | 6.15 | 5.81 | – | – |
| 6E7 variant V50 (antibody, V domains shown) VH: EVQLVQSGAEVKKPGESLKISCKGSGYSFGSYWIAWVRQMPGKGLEWMGVIYPGDSDTRYSPSFQGQVTISADKSISTAYLQWSSLKASDTAMYFCARQRTFYYDSSDYLDYWGQGTLVTVSS VL: DIQMTQSPSSVSASVGDRVTITCRASQGISSWLAWYQQKPGKAPKLLIYAASSRQNGVPSRFSGSGSGTDFTLTISSLQPEDFATYFCQQADSLPRTFGQGTKLEIK | 3.39 | 4.1 | 4.16 | – | – |
| 6E7 variant V41 (antibody, V domains shown) VH: EVQLVQSGAEVKKPGESLKISCKGSGYSFTSYWIAWVRQMPGKGLEWMGTIYPGDSDTRYSPSFQGQVTISADKSISTAYLQWSSLKASDTAMYFCARQRTFYYDSSDYFDYWGQGTLVTVSS VL: DIQMTQSPSSVSASVGDRVTITCRASQGISSWLAWYQQKPGKAPKLLIYAASSLQNGVPSRFSGSGSGTDFTLTISSLQPEDFATYFCQQADSFPRTFGQGTKLEIK | 0.58 | 1.74 | 1.72 | – | – |
| 6E7 variant V33 (antibody, V domains shown) VH: EVQLVQSGAEVKKPGESLKISCKGSGYSFTSYWIAWVRQMPGKGLEWMGIIYPGDSDTRYSPSFQGQVTISADKSISTAYLQWSSLKASDTAMYFCARQRTFYGDSSDYFDYWGQGTLVTVSS VL: DIQMTQSPSSVSASVGDRVTITCRASQGISSWLAWYQQKPGKAPKLLIYAASSLQNGVPSRFSGSGSGTDFTLTISSLQPEDFATYFCQQADSFPRTFGQGTKLEIK | – | – | – | 0.23 | 0.34 |
| 6E7 variant V38 (antibody, V domains shown) VH: EVQLVQSGAEVKKPGESLKISCKGSGYSFGSYWIAWVRQMPGKGLEWMGIIYPGDSDVRYSPSFQGQVTISADKSISTAYLQWSSLKASDTAMYFCARQRTFYYDSSDYFDYWGQGTLVTVSS VL: DIQMTQSPSSVSASVGDRVTITCRASQGISSWLAWYQQKPGKAPKLLIYAASSRQNGVPSRFSGSGSGTDFTLTISSLQPEDFATYFCQQADSHPRTFGQGTKLEIK | 3.44 | 4.34 | 4.36 | – | – |
| 6E7 variant V37 (antibody, V domains shown) VH: EVQLVQSGAEVKKPGESLKISCKGSGYSHTSYWIAWVRQMPGKGLEWMGIIYPGDSDTRYSPSFAGQVTISADKSISTAYLQWSSLKASDTAMYFCARSRTFYYDSSDYFDYWGQGTLVTVSS VL: DIQMTQSPSSVSASVGDRVTITCRASQGISSWLAWYQQKPGKAPKLLIYAASSLQWGVPSRFSGSGSGTDFTLTISSLQPEDFATYFCQQADSYPRTFGQGTKLEIK | 3.69 | 3.46 | 3.49 | – | – |
| 6E7 variant V49 (antibody, V domains shown) VH: EVQLVQSGAEVKKPGESLKISCKGSGYSFNSYWIAWVRQMPGKGLEWMGTIYPGDSDTRLSPSFQGQVTISADKSISTAYLQWSSLKASDTAMYFCARSRTFYYDSSDYFDYWGQGTLVTVSS VL: DIQMTQSPSSVSASVGDRVTITCRASQGISSWLAWYQQKPGKAPKLLIYAASSRQNGVPSRFSGSGSGTDFTLTISSLQPEDFATYFCQQADSYPRTFGQGTKLEIK | 5.02 | 6.51 | 6.58 | – | – |
| 6E7 variant V40 (antibody, V domains shown) VH: EVQLVQSGAEVKKPGESLKISCKGSGYSFGSYWIAWVRQMPGKGLEWMGIIYPGDSDVRYSPSFQGQVTISADKSISTAYLQWSSLKASDTAMYFCARQRTFYYDSSDYSDYWGQGTLVTVSS VL: DIQMTQSPSSVSASVGDRVTITCRASQGISSWLAWYQQKPGKAPKLLIYAASSLQLGVPSRFSGSGSGTDFTLTISSLQPEDFATYFCQQADRFPRTFGQGTKLEIK | 3.41 | 4.48 | 4.16 | – | – |
| 6E7 variant V1 (antibody, V domains shown) VH: EVQLVQSGAEVKKPGESLKISCKGSGYSFTSSWIAWVRQMPGKGLEWMGIIYPGDSDTRYSPSFQGQVTISADKSISTAYLQWSSLKASDTAMYFCARSRTFYYDSSDYFDYWGQGTLVTVSS VL: DIQMTQSPSSVSASVGDRVTITCRASQGISSWLAWYQQKPGKAPKLLIYAASSLTNGVPSRFSGSGSGTDFTLTISSLQPEDFATYFCQQADSYPRTFGQGTKLEIK | 1.29 | 1.68 | 1.92 | – | – |
| 6E7 variant V48 (antibody, V domains shown) VH: EVQLVQSGAEVKKPGESLKISCKGSGYSFGSYWIAWVRQMPGKGLEWMGIIYPGDSDVRYSPSFQGQVTISADKSISTAYLQWSSLKASDTAMYFCARMRTFYYDSSDYFDYWGQGTLVTVSS VL: DIQMTQSPSSVSASVGDRVTITCRASQGISSWLAWYQQKPGKAPKLLIYAASSLQTGVPSRFSGSGSGTDFTLTISSLQPEDFATYFCQQADSLPRTFGQGTKLEIK | 2.3 | 2.42 | 2.54 | – | – |

Continued, values first:

| Binding Signal (fold over 6E7 parental antibody) (human TREM2 (human) [1]) [fold] | Binding Signal (fold over 6E7 parental antibody) (human TREM2 (human) [2]) [fold] | Binding Signal (fold over 6E7 parental antibody) (human TREM2 (human) [3]) [fold] | Binding Signal (fold over 6E7 parental antibody) (human TREM2 (human) [4]) [fold] | Binding Signal (fold over 6E7 parental antibody) (human TREM2 (human) [5]) [fold] | Binder |
| --- | --- | --- | --- | --- | --- |
| 3.35 | 3.26 | 3.63 | – | – | 6E7 variant V60 (antibody, V domains shown) VH: EVQLVQSGAEVKKPGESLKISCKGSGYHFTSYWIAWVRQMPGKGLEWMGIIYPGDSDVRYSPSFQGQVTISADKSISTAYLQWSSLKASDTAMYFCARQRTFYYDSSDYSDYWGQGTLVTVSS VL: DIQMTQSPSSVSASVGDRVTITCRASQGISSWLAWYQQKPGKAPKLLIYAASSLQRGVPSRFSGSGSGTDFTLTISSLQPEDFATYFCGQADSFPRTFGQGTKLEIK |
| 0.66 | 1.25 | 1.17 | – | – | 6E7 variant V53 (antibody, V domains shown) VH: EVQLVQSGAEVKKPGESLKISCKGSGYSFTSYWIAWVRQMPGKGLEWMGIIYPGDSDTRYSPHFQGQVTISADKSISTAYLQWSSLKASDTAMYFCARQRTFYYDSSDYFDYWGQGTLVTVSS VL: DIQMTQSPSSVSASVGDRVTITCRASQGISSWLAWYQQKPGKAPKLLIYAASSLQNGVPSRFSGSGSGTDFTLTISSLQPEDFATYFCQQADSFPRTFGQGTKLEIK |
| 1.83 | 2.81 | 3.18 | – | – | 6E7 variant V51 (antibody, V domains shown) VH: EVQLVQSGAEVKKPGESLKISCKGSGYSFTSYWIAWVRQMPGKGLEWMGIIYPGDSDVRYSPSFQGQVTISADKSISTAYLQWSSLKASDTAMYFCARGRTFYYDSSDYFDNWGQGTLVTVSS VL: DIQMTQSPSSVSASVGDRVTITCRASQGISSWLAWYQQKPGKAPKLLIYAASSRQNGVPSRFSGSGSGTDFTLTISSLQPEDFATYFCQQADSFPRTFGQGTKLEIK |
| 3.63 | 5.08 | 5.22 | – | – | 6E7 variant V61 (antibody, V domains shown) VH: EVQLVQSGAEVKKPGESLKISCKGSGYSFSSYWIAWVRQMPGKGLEWMGIIYPGDSDTRYNPSFQGQVTISADKSISTAYLQWSSLKASDTAMYFCARGRTFYYDSSDYFDYWGQGTLVTVSS VL: DIQMTQSPSSVSASVGDRVTITCRASQGISSWLAWYQQKPGKAPKLLIYAASSLVNGVPSRFSGSGSGTDFTLTISSLQPEDFATYFCQQADSLPRTFGQGTKLEIK |
| 1.87 | 2.49 | 2.89 | – | – | 6E7 variant V62 (antibody, V domains shown) VH: EVQLVQSGAEVKKPGESLKISCKGSGYSFGSYWIAWVRQMPGKGLEWMGIIYPGDSDTRYAPSFQGQVTISADKSISTAYLQWSSLKASDTAMYFCARQRTFYYDSSGYFDYWGQGTLVTVSS VL: DIQMTQSPSSVSASVGDRVTITCRASQGISSWLAWYQQKPGKAPKLLIYAASSLQRGVPSRFSGSGSGTDFTLTISSLQPEDFATYFCGQADSFPRTFGQGTKLEIK |
